Data: patent US20220332844A1 (ORIONIS BIOSCIENCES, published 2022)
Numbering of substitutions follows the chain as printed. In names and notes the source's numbering stands.

T1: recombinant FAP protein (BioLegend), biotinylated (Homo sapiens (Human), UniProt Q12884 26-760, Biotinylated (sites not given) for loading on streptavidin sensors. Any vendor tag is not stated in the passages shown.)
T1 construct: Loaded on streptavidin sensors for BLI; also called biotinylated FAP
T1 sequence: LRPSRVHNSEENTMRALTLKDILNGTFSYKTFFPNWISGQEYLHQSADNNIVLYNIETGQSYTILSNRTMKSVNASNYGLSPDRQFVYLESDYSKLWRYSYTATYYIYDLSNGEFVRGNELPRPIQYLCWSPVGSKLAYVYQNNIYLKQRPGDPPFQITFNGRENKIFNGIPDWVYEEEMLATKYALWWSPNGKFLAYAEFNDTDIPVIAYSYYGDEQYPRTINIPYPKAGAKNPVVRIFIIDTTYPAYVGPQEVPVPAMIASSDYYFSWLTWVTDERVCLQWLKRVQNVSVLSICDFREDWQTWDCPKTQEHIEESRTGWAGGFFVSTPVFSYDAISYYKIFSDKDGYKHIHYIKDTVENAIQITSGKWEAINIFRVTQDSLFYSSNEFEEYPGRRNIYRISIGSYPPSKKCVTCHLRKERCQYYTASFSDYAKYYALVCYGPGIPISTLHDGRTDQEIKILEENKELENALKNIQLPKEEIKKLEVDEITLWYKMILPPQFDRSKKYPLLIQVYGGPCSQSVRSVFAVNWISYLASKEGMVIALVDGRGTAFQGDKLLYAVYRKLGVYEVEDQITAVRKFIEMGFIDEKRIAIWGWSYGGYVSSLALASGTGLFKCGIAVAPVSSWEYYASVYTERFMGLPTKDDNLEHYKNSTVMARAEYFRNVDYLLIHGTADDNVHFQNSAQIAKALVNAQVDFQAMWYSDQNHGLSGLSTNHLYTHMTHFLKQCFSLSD

T2: mouse FAP on transiently transfected HEK293T cells (pMET7 FLAG-mFAP) (mouse, UniProt P97321 1-761)
T2 construct: whole, on cells; not shown: FLAG tag of the plasmid pMET7 FLAG-mFAP
T2 sequence (looked up): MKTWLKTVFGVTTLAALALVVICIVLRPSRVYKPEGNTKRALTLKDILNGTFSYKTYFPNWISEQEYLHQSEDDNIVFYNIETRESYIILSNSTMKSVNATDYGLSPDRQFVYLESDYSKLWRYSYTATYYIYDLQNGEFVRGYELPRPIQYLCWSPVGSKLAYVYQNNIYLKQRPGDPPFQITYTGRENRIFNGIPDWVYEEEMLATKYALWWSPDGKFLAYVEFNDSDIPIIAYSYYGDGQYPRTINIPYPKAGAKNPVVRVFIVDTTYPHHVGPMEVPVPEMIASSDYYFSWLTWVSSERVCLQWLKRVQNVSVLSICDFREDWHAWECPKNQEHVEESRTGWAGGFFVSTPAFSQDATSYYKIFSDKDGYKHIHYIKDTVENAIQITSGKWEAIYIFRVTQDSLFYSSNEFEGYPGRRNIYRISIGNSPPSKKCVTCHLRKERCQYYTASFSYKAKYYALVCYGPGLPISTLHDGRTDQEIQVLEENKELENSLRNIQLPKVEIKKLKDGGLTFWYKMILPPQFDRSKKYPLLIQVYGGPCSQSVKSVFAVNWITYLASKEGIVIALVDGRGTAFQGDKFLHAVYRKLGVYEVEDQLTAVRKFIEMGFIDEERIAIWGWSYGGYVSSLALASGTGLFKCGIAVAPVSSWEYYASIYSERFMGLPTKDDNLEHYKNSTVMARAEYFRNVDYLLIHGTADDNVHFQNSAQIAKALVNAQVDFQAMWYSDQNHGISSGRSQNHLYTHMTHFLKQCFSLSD

B1: P-1901: 2PE14 (VHH)
VHH: QVQLQESGGGLVQPGGSLRLSCAASGSTFSINAVAWYRQAPGKRRELVAGISGGGVTNYPDSVKGRFTISRDNAKNTVYLQMSSLKPEDTAVYYCNLWPPRASPGGRVYWGQGTQVTVSS
notes: also called pET28 PelB-2PE14
B2: P-1934: 3PE42_M31P (VHH)
VHH: B1 VHH with G16E, A24V, F29S, I31P, V34M, V56A, R107G
notes: also called pET28 PelB-3PE42_M42P
B3: P-1927: 3PE42_M31F (VHH)
VHH: B1 VHH with G16E, A24V, F29S, I31F, V34M, V56A, R107G
notes: also called pET28 PelB-3PE42_M42F
B4: P-1939: 3PE42_M31V (VHH)
VHH: B1 VHH with G16E, A24V, F29S, I31V, V34M, V56A, R107G
notes: also called pET28 PelB-3PE42_M42V
B5: P-1913: 2PE14_N32K (VHH)
VHH: B1 VHH with N32K
notes: also called pET28 PelB-2PE14_N32K
B6: P-1924: 3PE42_M31A (VHH)
VHH: B1 VHH with G16E, A24V, F29S, I31A, V34M, V56A, R107G
notes: also called pET28 PelB-3PE42_M42A
B7: P-1902: 2PE14_opt1 (Q1D_Q5V_A74S_K83R_Q108L) (VHH)
VHH: B1 VHH with Q1D, Q5V, A74S, K86R, Q115L
notes: also called pET28 PelB-2PE14_opt1
B8: P-1907: 2PE14_N32D (VHH)
VHH: B1 VHH with N32D
notes: also called pET28 PelB-2PE14_N32D
B9: P-1925: 3PE42_M31D (VHH)
VHH: B1 VHH with G16E, A24V, F29S, I31D, V34M, V56A, R107G
notes: also called pET28 PelB-3PE42_M42D
B10: P-1941: 3PE42_M31Y (VHH)
VHH: B1 VHH with G16E, A24V, F29S, I31Y, V34M, V56A, R107G
notes: also called pET28 PelB-3PE42_M42Y
B11: P-1937: 3PE42_M31S (VHH)
VHH: B1 VHH with G16E, A24V, F29S, I31S, V34M, V56A, R107G
notes: also called pET28 PelB-3PE42_M42S
B12: P-1910: 2PE14_N32G (VHH)
VHH: B1 VHH with N32G
notes: also called pET28 PelB-2PE14_N32G
B13: P-1936: 3PE42_M31R (VHH)
VHH: B1 VHH with G16E, A24V, F29S, I31R, V34M, V56A, R107G
notes: also called pET28 PelB-3PE42_M42R
B14: P-1905: 2PE14_opt4 (Q1D_Q5V_P60A_A74S_S82N_K83R_Q108L) (VHH)
VHH: B1 VHH with Q1D, Q5V, P60A, A74S, S83N, K86R, Q115L
B15: P-1909: 2PE14_N32F (VHH)
VHH: B1 VHH with N32F
notes: also called pET28 PelB-2PE14_N32F
B16: P-1920: 2PE14_N32V (VHH)
VHH: B1 VHH with N32V
notes: also called pET28 PelB-2PE14_N32V
B17: P-1938: 3PE42_M31T (VHH)
VHH: B1 VHH with G16E, A24V, F29S, I31T, V34M, V56A, R107G
notes: also called pET28 PelB-3PE42_M42T
B18: P-1912: 2PE14_N32I (VHH)
VHH: B1 VHH with N32I
notes: also called pET28 PelB-2PE14_N32I
B19: P-1919: 2PE14_N32T (VHH)
VHH: B1 VHH with N32T
notes: also called pET28 PelB-2PE14_N32T
B20: P-1906: 2PE14_N32A (VHH)
VHH: B1 VHH with N32A
notes: also called pET28 PelB-2PE14_N32A
B21: P-1932: 3PE42_M31L (VHH)
VHH: B1 VHH with G16E, A24V, F29S, I31L, V34M, V56A, R107G
notes: also called pET28 PelB-3PE42_M42L
B22: P-1918: 2PE14_N32S (VHH)
VHH: B1 VHH with N32S
notes: also called pET28 PelB-2PE14_N32S
B23: P-1926: 3PE42_M31E (VHH)
VHH: B1 VHH with G16E, A24V, F29S, I31E, V34M, V56A, R107G
notes: also called pET28 PelB-3PE42_M42E
B24: P-1930: 3PE42_M31I (VHH)
VHH: B1 VHH with G16E, A24V, F29S, V34M, V56A, R107G
notes: also called pET28 PelB-3PE42_M42I
B25: P-1917: 2PE14_N32R (VHH)
VHH: B1 VHH with N32R
notes: also called pET28 PelB-2PE14_N32R
B26: P-1911: 2PE14_N32H (VHH)
VHH: B1 VHH with N32H
notes: also called pET28 PelB-2PE14_N32H
B27: P-1935: 3PE42_M31Q (VHH)
VHH: B1 VHH with G16E, A24V, F29S, I31Q, V34M, V56A, R107G
notes: also called pET28 PelB-3PE42_M42Q
B28: P-1921: 2PE14_N32W (VHH)
VHH: B1 VHH with N32W
notes: also called pET28 PelB-2PE14_N32W
B29: P-1915: 2PE14_N32P (VHH)
VHH: B1 VHH with N32P
notes: also called pET28 PelB-2PE14_N32P
B30: P-1908: 2PE14_N32E (VHH)
VHH: B1 VHH with N32E
notes: also called pET28 PelB-2PE14_N32E
B31: P-1914: 2PE14_N32L (VHH)
VHH: B1 VHH with N32L
notes: also called pET28 PelB-2PE14_N32L
B32: P-1903: 2PE14_opt2 (Q1D_Q5V_P60A_A74S_K83R_Q108L) (VHH)
VHH: B1 VHH with Q1D, Q5V, P60A, A74S, K86R, Q115L
notes: also called pET28 PelB-2PE14_opt2 (idem + P60A)
B33: P-1929: 3PE42_M31H (VHH)
VHH: B1 VHH with G16E, A24V, F29S, I31H, V34M, V56A, R107G
notes: also called pET28 PelB-3PE42_M42H
B34: P-1904: 2PE14_opt3 (Q1D_Q5V_A74S_S82N_K83R_Q108L) (VHH)
VHH: B1 VHH with Q1D, Q5V, A74S, S83N, K86R, Q115L
notes: also called pET28 PelB-2PE14_opt3 (idem + S82N)
B35: P-1916: 2PE14_N32Q (VHH)
VHH: B1 VHH with N32Q
notes: also called pET28 PelB-2PE14_N32Q
B36: P-1940: 3PE42_M31W (VHH)
VHH: B1 VHH with G16E, A24V, F29S, I31W, V34M, V56A, R107G
notes: also called pET28 PelB-3PE42_M42W
B37: P-1922: 2PE14_N32Y (VHH)
VHH: B1 VHH with N32Y
notes: also called pET28 PelB-2PE14_N32Y
B38: P-1923: 3PE42 (VHH)
VHH: B1 VHH with G16E, A24V, F29S, I31M, V34M, V56A, R107G
notes: also called pET28 PelB-3PE42
B39: P-1933: 3PE42_M31N (VHH)
VHH: B1 VHH with G16E, A24V, F29S, I31N, V34M, V56A, R107G
notes: also called pET28 PelB-3PE42_M42N
B40: P-1931: 3PE42_M31K (VHH)
VHH: B1 VHH with G16E, A24V, F29S, I31K, V34M, V56A, R107G
notes: also called pET28 PelB-3PE42_M42K
B41: P-1928: 3PE42_M31G (VHH)
VHH: B1 VHH with G16E, A24V, F29S, I31G, V34M, V56A, R107G
notes: also called pET28 PelB-3PE42_M42G
B42: 2PE14 (VHH)
VHH: B1 VHH
B43: 2PE40 (VHH)
VHH: B1 VHH with G26E, T77I
B44: 2PE36 (VHH)
VHH: B1 VHH with G105D
B45: 2PE17 (VHH)
VHH: B1 VHH with P14S
B46: 2PE42 (VHH)
VHH: B1 VHH with P14A, K64R, G105D
B47: 2PE44 (VHH)
VHH: B1 VHH with I31V, K86I

target: T1, recombinant FAP protein (BioLegend), …; experiment: BLI (Octet RED96), biotinylated FAP on streptavidin sensors

Row | Binder | Kd [nM]
1 | B1 | 0.667
2 | B2 | 1.34
3 | B3 | 1.17
4 | B4 | 2.45
5 | B5 | 2.67
6 | B6 | 0.0889
7 | B7 | 0.0951
8 | B8 | 10.8
9 | B9 | 0.165
10 | B10 | 1.12
11 | B11 | 0.613
12 | B12 | 4.62
13 | B13 | 0.0276
14 | B14 | 3.76
15 | B15 | 0.468
16 | B16 | 100
17 | B17 | 1.16
18 | B18 | 16.8
19 | B19 | 4.11
20 | B20 | 3.56
21 | B21 | 0.872

Row | Binder | Kd [nM]
22 | B22 | 556
23 | B23 | 1.85
24 | B24 | 2.87
25 | B25 | 0.317
26 | B26 | 3.69
27 | B27 | 0.214
28 | B28 | 0.221
29 | B29 | 1.17
30 | B30 | 1.09
31 | B31 | 1.25
32 | B32 | 2.26
33 | B33 | 1.12
34 | B34 | 0.653
35 | B35 | 0.386
36 | B36 | 0.0945
37 | B37 | 14.5
38 | B38 | 0.588
39 | B39 | 0.567
40 | B40 | 0.851
41 | B41 | 4.02

target: T2, mouse FAP on transiently transfected …; experiment: FACS, serial dilution of purified VHH on transfected HEK293T cells

Row | Binder | binding result
42 | B42 | binds
43 | B43 | binds
44 | B44 | binds
45 | B45 | binds
46 | B46 | binds
47 | B47 | binds
